US20240360474 (Scribe Therapeutics Inc., published 2024)
Residue numbers refer to the chain shown, from its start.

T1: CasX 2 (reference CasX) (Planctomycetes)
T1 chain: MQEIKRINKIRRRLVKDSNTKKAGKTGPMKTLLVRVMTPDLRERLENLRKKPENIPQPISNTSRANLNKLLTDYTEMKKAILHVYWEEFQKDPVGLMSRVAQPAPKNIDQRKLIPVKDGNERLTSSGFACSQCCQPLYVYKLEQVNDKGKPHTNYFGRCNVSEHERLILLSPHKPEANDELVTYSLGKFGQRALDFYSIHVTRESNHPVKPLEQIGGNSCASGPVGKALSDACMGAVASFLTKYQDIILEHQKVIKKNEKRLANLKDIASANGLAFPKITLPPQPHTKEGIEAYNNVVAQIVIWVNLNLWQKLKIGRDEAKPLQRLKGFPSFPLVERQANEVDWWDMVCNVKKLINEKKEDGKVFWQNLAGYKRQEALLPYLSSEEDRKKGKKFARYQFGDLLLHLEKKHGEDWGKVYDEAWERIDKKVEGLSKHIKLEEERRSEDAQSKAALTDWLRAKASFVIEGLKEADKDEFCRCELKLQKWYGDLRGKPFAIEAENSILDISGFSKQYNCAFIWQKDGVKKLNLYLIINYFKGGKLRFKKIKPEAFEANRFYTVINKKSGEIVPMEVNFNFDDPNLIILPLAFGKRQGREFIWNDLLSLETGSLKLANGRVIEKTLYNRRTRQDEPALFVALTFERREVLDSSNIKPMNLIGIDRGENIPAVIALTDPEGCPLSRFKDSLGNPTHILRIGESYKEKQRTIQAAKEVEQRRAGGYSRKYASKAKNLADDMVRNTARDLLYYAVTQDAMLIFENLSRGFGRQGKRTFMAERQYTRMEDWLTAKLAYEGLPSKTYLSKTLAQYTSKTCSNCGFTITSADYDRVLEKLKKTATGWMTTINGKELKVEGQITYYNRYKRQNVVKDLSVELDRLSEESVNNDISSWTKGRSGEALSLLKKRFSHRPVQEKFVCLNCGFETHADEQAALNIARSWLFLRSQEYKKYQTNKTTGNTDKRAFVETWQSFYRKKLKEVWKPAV

T2: CasX variant 438 (synthetic construct)
T2 chain: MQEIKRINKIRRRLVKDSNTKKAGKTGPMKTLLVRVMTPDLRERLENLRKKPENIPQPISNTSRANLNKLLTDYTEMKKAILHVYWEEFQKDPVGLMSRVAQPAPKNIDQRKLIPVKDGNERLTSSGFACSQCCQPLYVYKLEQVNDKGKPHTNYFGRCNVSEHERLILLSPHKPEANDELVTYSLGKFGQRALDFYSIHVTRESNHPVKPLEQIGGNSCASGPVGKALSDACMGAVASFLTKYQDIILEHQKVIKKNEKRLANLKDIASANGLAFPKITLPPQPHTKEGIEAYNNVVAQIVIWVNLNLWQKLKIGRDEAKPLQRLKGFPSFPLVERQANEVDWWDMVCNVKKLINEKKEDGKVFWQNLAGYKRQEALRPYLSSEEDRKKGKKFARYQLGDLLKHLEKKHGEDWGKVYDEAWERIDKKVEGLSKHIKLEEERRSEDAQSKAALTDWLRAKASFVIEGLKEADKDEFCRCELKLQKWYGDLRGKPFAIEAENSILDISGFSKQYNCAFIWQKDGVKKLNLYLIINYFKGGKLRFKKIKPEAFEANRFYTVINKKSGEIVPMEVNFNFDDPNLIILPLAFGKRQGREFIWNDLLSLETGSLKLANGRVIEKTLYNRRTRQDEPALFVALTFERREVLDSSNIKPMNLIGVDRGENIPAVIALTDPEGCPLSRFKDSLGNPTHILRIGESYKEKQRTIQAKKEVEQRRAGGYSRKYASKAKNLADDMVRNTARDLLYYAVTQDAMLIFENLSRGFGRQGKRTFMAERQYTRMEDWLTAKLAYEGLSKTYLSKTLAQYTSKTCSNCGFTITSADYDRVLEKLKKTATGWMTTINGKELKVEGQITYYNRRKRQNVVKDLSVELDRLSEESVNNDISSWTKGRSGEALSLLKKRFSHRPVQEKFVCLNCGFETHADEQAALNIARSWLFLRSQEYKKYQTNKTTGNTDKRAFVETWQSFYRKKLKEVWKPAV

T3: CasX variant 119 (synthetic construct)
T3 chain: T2 chain with L399F, K404L, V658I, R856Y

T4: CasX variant 491 (synthetic construct)
T4 chain: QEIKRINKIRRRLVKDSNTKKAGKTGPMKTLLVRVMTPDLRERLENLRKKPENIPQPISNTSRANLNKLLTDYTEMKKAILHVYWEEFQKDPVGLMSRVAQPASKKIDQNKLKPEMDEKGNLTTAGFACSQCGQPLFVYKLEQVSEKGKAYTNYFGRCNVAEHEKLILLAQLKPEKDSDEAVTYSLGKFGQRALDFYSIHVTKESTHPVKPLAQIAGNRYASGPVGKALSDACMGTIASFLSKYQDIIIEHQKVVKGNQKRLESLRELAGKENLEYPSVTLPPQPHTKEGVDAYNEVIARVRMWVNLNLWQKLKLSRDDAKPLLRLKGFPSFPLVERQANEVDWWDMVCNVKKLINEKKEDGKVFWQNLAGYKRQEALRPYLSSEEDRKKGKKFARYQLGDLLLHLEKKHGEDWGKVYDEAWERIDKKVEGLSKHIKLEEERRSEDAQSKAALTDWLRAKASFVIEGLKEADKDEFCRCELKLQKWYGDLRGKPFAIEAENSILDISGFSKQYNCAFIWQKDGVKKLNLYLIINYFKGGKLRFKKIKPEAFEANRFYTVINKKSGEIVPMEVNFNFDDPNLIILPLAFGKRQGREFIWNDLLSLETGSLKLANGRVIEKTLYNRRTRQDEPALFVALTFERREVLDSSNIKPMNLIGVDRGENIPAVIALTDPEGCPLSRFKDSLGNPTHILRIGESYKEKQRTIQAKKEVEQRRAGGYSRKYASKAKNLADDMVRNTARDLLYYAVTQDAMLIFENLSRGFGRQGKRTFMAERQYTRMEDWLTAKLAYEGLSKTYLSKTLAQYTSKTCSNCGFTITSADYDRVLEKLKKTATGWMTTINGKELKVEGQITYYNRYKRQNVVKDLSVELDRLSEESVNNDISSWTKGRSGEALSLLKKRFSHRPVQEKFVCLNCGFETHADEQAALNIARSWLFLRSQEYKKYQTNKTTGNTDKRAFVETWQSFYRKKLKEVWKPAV

B1: gRNA scaffold 174 + spacer 7.37 ; 7.37 CTC PAM target (ssRNA ; dsDNA)
RNA: ACUGGCGCUUUUAUCUGAUUACUUUGAGAGCCAUCACCAGCGACUAUGUCGUAGUGGGUAAAGCUCCCUCUUCGGAGGGAGCAUCAAAGGGGCCGAGAUGUCUCGCUCC
DNA 1: TGAAGCTGACAGCACTCGGGCCGAGATGTCTCGCTCCGTGGCCTTAGCTGTGCTCGCGCT
DNA 2: AGCGCGAGCACAGCTAAGGCCACGGAGCGAGACATCTCGGCCCGAGTGCTGTCAGCTTCA
B2: gRNA scaffold 174 + spacer 7.37 ; 7.37 ATC PAM target (ssRNA ; dsDNA)
RNA: B1 RNA
DNA 1: B1 DNA 1 with C15A
DNA 2: B1 DNA 2 with G46T
B3: gRNA scaffold 174 + spacer 7.37 ; 7.37 GTC PAM target (ssRNA ; dsDNA)
RNA: B1 RNA
DNA 1: B1 DNA 1 with C15G
DNA 2: B1 DNA 2 with G46C
B4: gRNA scaffold 174 + spacer 7.37 ; 7.37 TTT PAM target (ssRNA ; dsDNA)
RNA: B1 RNA
DNA 1: B1 DNA 1 with C15T, C17T
DNA 2: B1 DNA 2 with G44A, G46A

How the values were obtained:
Experiment in all cases: cleavage_in_vitro
CasX 2 (reference CasX) = molecular target: T1, CasX 2 (reference CasX)
CasX variant 438 = molecular target: T2, CasX variant 438
CasX variant 119 = molecular target: T3, CasX variant 119
CasX variant 491 = molecular target: T4, CasX variant 491

Binder	activity (CasX 2 (reference CasX)) [min⁻¹]	activity (CasX variant 438) [min⁻¹]	activity (CasX variant 119) [min⁻¹]	activity (CasX variant 491) [min⁻¹]
B1	0.00929	0.212	0.303	
B2	0.0187	0.408	0.54	
B3	0.00375		0.0864	
B4				1.33
